For assay [1], the target named is T1, human serum albumin (human, UniProt P02768 25-609).
T1 construct: Immobilized on the sensor chip (2500 RU in screening; 1100-1600 RU in kinetics); also called HSA
Nature of the assay: SPR (ProteOn) screening, 50 nM over immobilized HSA. As for the experimental part: (§1) Biosensor binding analyses were performed on a ProteOn XPR36 instrument (Bio-Rad) at 25° C. using PBST (150 mM NaCl, 8 mM Na₂HPO₄, 2 mM NaH₂PO₄, 0.005% Tween20, pH 7.4) as running buffer at a flow rate of 50 μl min⁻¹. An injection of 30 μl of 20 mM HCl at a flow rate of 100 μl min⁻¹ was used for chip regeneration. In a screening experiment, the binding of all polypeptide variants to human serum albumin (HSA) was investigated. The proteins were diluted to 50 nM in running buffer and injected over a chip surface with 2500 RU of immobilized HSA. The association was studied for 300 s and the dissociation was followed for 7200 s (2 h). For data analysis, all samples were double referenced; the signal from a blank surface was first subtracted from the signal from the respective protein, and secondly the signal from an injection of PBST (running buffer) over the HSA surface was subtracted.

The target in assay [2] is T1, human serum albumin. As to the kind of experiment: SPR (ProteOn XPR36), HSA immobilized, KD=kd/ka. As for the experimental part: as §1, with “subtracted. […]” for “subtracted.”
(§2) The kinetic parameters of the binding of PEP18049_CL and the reference protein PEP07830 to HSA were obtained from fitting the obtained sensorgrams to a 1:1 Langmuir binding model using the ProteOn Manager software version 3.1.0.6 (Bio-Rad). The average association rate constant (kₐ (M⁻¹ s⁻¹) and dissociation rate constant (kd (s⁻¹)) with standard deviation were calculated. From the average kₐ and the kd the dissociation equilibrium constant (KD (M)) was calculated (KD=kd/kₐ).

Assay [3] concerns the target T1, human serum albumin. Nature of the assay: SPR (ProteOn XPR36), HSA immobilized, 1:1 Langmuir fit, triplicate. As for the experimental part:
as §1
The HSA binding kinetics of PEP18049_CL and the reference protein PEP07830 were further studied using a sensor chip with HSA immobilized on three different surfaces to between 1100 RU and 1600 RU. The proteins were diluted in running buffer (0.8, 1.6, 3.3, and 6.6 nM for PEP18049_CL and 1.0, 2.0, 4.0 and 8.0 nM for PEP07830) and injected over the three HSA surfaces and thus giving binding curves in triplicate. The association time was 300 s and the dissociation was followed for 36 000 s (10 h).
as §2

For assay [4], the target named is T1, human serum albumin. Nature of the assay: SPR (ProteOn XPR36), polypeptide injected over immobilized HSA. The protocol: as §1

Starred links: 1 amine or outer side, 2 acyl side, 3 side chain; linkers in the order of their positions; H or OH if unused. Positions of bridges follow the written chain, without caps; N, C: chain ends. No end group written: not given here. mXylylene = c1cc(C[*:1])cc(C[*:2])c1; oXylylene = c1ccc(C[*:2])c(C[*:1])c1

B1: PEP14789_CL_A (designed binder)
chain: GSSLAEAKEAANAELDSYGCSDFYKRLIDKAKTVEGVEALKDAILAACP
modifications: linker 20-48 via oXylylene
notes: Recombinantly produced in E. coli; same as PEP14788 but with an N-terminal GSS (expressed with an MGSS extension); The crosslink positions are printed as Cys17-Cys45, probably counted without the GSS; also called PEP14789 crosslinked with linker A (o-xylylene dibromide)
Take B1: in the assay with human serum albumin [1], the binding result is listed as “binds”.

B2: PEP14789_CL_B (designed binder)
chain: GSSLAEAKEAANAELDSYGCSDFYKRLIDKAKTVEGVEALKDAILAACP
modifications: linker 20-48 via mXylylene
notes: Recombinantly produced in E. coli; same as PEP14788 but with an N-terminal GSS (expressed with an MGSS extension); The crosslink positions are printed as Cys17-Cys45, probably counted without the GSS; also called PEP14789 crosslinked with linker B (m-xylylene dibromide)
For the molecule B2, in the assay with human serum albumin [1], the binding result is listed as “binds”.

B3: PEP18049_CL (designed binder)
chain: LAEAKEAANAELDSYGCSDFYKRLIDKAKTVEGVEALKDAILAAKP
modifications: not fully specified; N-terminal leucine capped with acetic anhydride (acetylated); chloroacetylated Lys45 joined to the thiol of Cys17 by a thioether bond (intramolecular crosslink Cys17-Lys45); synthesised on Rink Amide resin
notes: also called crosslinked PEP18049
Regarding B3, binding with human serum albumin [2] was characterised by a dissociation constant (Kd) of 0.024 nM. Also, in the assay with human serum albumin [3], the koff (as a rule, the rate constant with which the complex falls apart) was 1.5e-05 s⁻¹ and the on-rate constant (kon) (commonly the rate constant with which the complex forms) is 620000 M⁻¹ s⁻¹.

B4: PEP18052_CL (designed binder)
chain: LAEAKEAANAELDSYGCSDFYKRLIDKCKTVEGVEALKDAILAAKP
modifications: not fully specified; two thioether crosslinks between chloroacetylated lysines and cysteines: Lys5-Cys28 and Cys17-Lys45; synthesised on Rink Amide resin
notes: Control, double crosslinked variant; the expected mass was found in two HPLC peaks that behaved alike; also called crosslinked PEP18052
Take B4: the binding result with human serum albumin [4] is reported as “no binding (tested: 50 nM)”.

B5: PEP14788_CL_A (designed binder)
chain: LAEAKEAANAELDSYGCSDFYKRLIDKAKTVEGVEALKDAILAACP-NH2
modifications: linker 17-45 via oXylylene
notes: Chemically synthesised Cys-Cys crosslinked variant; also called PEP14788 crosslinked with linker A (o-xylylene dibromide)
On to B5, for which the binding result in the assay with human serum albumin [1] is “binds”.

B6: PEP07830 (designed binder)
chain: LAEAKEAANAELDSYGVSDFYKRLIDKAKTVEGVEALKDAILAALP-NH2
notes: Linear (non-crosslinked) control, made by solid phase peptide synthesis
As for B6, in the assay with human serum albumin [2], binding was characterised by a dissociation constant (Kd) of 0.021 nM. Also, in the assay with human serum albumin [3], the koff amounted to 4.1e-06 s⁻¹ and the kon was 190000 M⁻¹ s⁻¹.

B7: PEP14788_CL_B (designed binder)
chain: LAEAKEAANAELDSYGCSDFYKRLIDKAKTVEGVEALKDAILAACP-NH2
modifications: linker 17-45 via mXylylene
notes: Chemically synthesised Cys-Cys crosslinked variant; also called PEP14788 crosslinked with linker B (m-xylylene dibromide)
Regarding B7, in the assay with human serum albumin [1], the binding result was “binds”.

B8: PEP18050_CL (designed binder)
chain: LAEAKEAANAELDSYGVSDFYKRLIDKCKTVEGVEALKDAILAALP
modifications: not fully specified; chloroacetylated Lys5 joined to the thiol of Cys28 by a thioether bond (intramolecular crosslink Lys5-Cys28); synthesised on Rink Amide resin
notes: Control crosslinked variant; also called crosslinked PEP18050
On to B8, for which the binding result with human serum albumin [4] is given as “no binding (tested: 50 nM)”.

B9: PEP18051_CL (designed binder)
chain: CAEAKEAANAELDSYGVSDFYKRLIDKAKTVEGVEALKDAILAALP
modifications: not fully specified; chloroacetylated Lys29 joined to the thiol of Cys1 by a thioether bond (intramolecular crosslink Cys1-Lys29); synthesised on Rink Amide resin
notes: Control crosslinked variant; also called crosslinked PEP18051
For the molecule B9, the binding result with human serum albumin [1] is recorded as “binds”.

B10: PEP14788_CL_E (designed binder)
chain: LAEAKEAANAELDSYGCSDFYKRLIDKAKTVEGVEALKDAILAACP-NH2
modifications: linker 17-45 via 2,6‑bis(bromomethyl)pyridine
notes: Chemically synthesised Cys-Cys crosslinked variant; also called PEP14788 crosslinked with linker E (2,6-bis(bromomethyl)pyridine)
Consider B10, for which the binding result with human serum albumin [1] is on record as “binds”.

The record behind these values is patent publication US20160311863A1 (Affibody, published 2016).
